The values that follow come from US20220213506A1 (Sanofi, published 2022).

Assay [1] deals with T1, Aβ1-42 fibrils (Aβ1-42 peptide, Bachem H-1368) (UniProt P05067 672-713).
T1 construct: domain: Aβ1-42; Fibrils were immobilized on the sensor chip by amine coupling, so this is a multimeric aggregate; also called fibrillar Aβ1-42; immobilized Aβ1-42 fibrils
The assay is described as follows: SPR (Biacore T200): Aβ1-42 fibrils immobilised on the sensor chip by amine coupling, antibody injected at 5-50 nM, global fit to a 1:1 binding model. A general note: Surface plasmon resonance follows binding to a sensor surface in real time, without labels.

For assay [2], the target named is T1, Aβ1-42 fibrils (Aβ1-42 peptide, Bachem …). The assay is described as follows: SPR (Biacore T200), antibody flowed over amine-coupled Aβ1-42 fibrils, 1:1 fit, apparent KD.
For assay [3] the target is unchanged. The assay is described as follows: SPR (Biacore T200): Aβ1-42 fibrils immobilised on the sensor chip by amine coupling, scFv-IgG injected at 5-50 nM, global fit to a 1:1 binding model.
Assay [4] has the same target. The assay is described as follows: SPR (Biacore T200), scFv-IgG flowed over amine-coupled Aβ1-42 fibrils, 1:1 fit, apparent KD.

T1 sequence (P05067 672-713 limits assumed): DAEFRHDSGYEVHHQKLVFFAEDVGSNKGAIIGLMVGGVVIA

B1: parental 13C3 anti-amyloid beta antibody (murine IgG) (antibody, V domains shown)
VH: EVQLQQSGPEVVKPGVSVKISCKGSGYTFTDYAMHWVKQSPGKSLEWIGVISTKYGKTNYNPSFQGQATMTVDKSSSTAYMELASLKASDSAIYYCARGDDGYSWGQGTSVTVSS
VL: EIVMTQTPLSLPVSLGDRASISCRSGQSLVHSNGNTYLHWYLQKPGQSPKLLIYTVSNRFSGVPDRFSGSGSGSDFTLTISRVEAEDLGVYFCSQNTFVPWTFGGGTKLEIK
notes: The SPR text says only 'parental IgG' or 'parental antibody'; The scFv-IgG derives from the murine 13C3 antibody (mouse IgG1); also called parental IgG; parental antibody
With B1, the Kd in assay [1] is 0.132 nM; in assay [2] it was 0.13 nM.

B2: anti-Aβ scFv-IgG (Fc fusion)
scFv: SEIVMTQTPLSLPVSLGDRASISCRSGQSLVHSNGNTYLHWYLQKPGQSPKLLIYTVSNRFSGVPDRFSGSGSGSDFTLTISRVEAEDLGVYFCSQNTFVPWTFGGGTKLEIKRTSSGGGGSGGGGSGGGGSEVQLQQSGPEVVKPGVSVKISCKGSGYTFTDYAMHWVKQSPGKSLEWIGVISTKYGKTNYNPSFQGQATMTVDKSSSTAYMELASLKASDSAIYYCARGDDGYSWGQGTSVTVSSASTGGGGGGGGGSGVPRDCGCKPCICTVPEVSSVFIFPPKPKDVLTITLTPKVTCVVVDISKDDPEVQFSWFVDDVEVHTAQTQPREEQFASTFRSVSELPIMHQDWLNGKEFKCRVNSAAFPAPIEKTISKTKGRPKAPQVYTIPPPKEQMAKDKVSLTCMITDFFPEDITVEWQWNGQPAENYKNTQPIMDTDGSYFVYSKLNVQKSNWEAGNTFTCSVLHEGLHNHHTEKSLSHSPGSGSGSGSHHHHHH
notes: Disulfide-linked homodimer; For SPR the protein was expressed in Expi293 cells and purified by IMAC; also called silent scFv-IgG; AAV-scFv-IgG (vector-expressed form)
Regarding B2, the Kd in assay [3] was found to be 0.525 nM; in assay [4], 0.52 nM.
